Columns and labels:
Format in all cases: biochemical, Quillaja saponaria
[1] = Experiment 6-1: screening of rhamnosidases for derhamnosylation of saponins in treated bark extract (2%), QS-17 2310 to QS-18 2164 (PAR %); details: TBE 2%, pH 7.5, 30 degC, 18 h; TIC peak area ratio percent, LCMS/MS; negative controls 3.061, 2.429
[2] = Experiment 6-1: screening of rhamnosidases for derhamnosylation of saponins in treated bark extract (2%), desglucosyl-QS-17 2134 to QS-21 1988 (PAR %); details: TBE 2%, pH 7.5, 30 degC, 18 h; TIC peak area ratio percent, LCMS/MS; negative controls 2.719, 2.158
[3] = Experiment 6-1: specificity of rhamnosidases towards other rhamnose residues (C3 saccharide rhamnose, C28 saccharide rhamnose); details: TBE 2%, pH 7.5, 30 degC, 18 h; LCMS/MS; negative controls 0.18, 0.17
[4] = Experiment 6-1: screening of rhamnosidases for derhamnosylation of saponins in treated bark extract (2%), QS-17 2296 to QS-18 2150 (PAR %); details: TBE 2%, pH 7.5, 30 degC, 18 h; TIC peak area ratio percent of rhamnosylated starting saponin to derhamnosylated product, LCMS/MS; negative controls 4.876, 5.225

B1: 1035 (protein, listed as Caulobacter segnis)
chain: MVKAYRPSLVLVLALAFGPAASAEPIWITHPAAPSAPTVVRFERDLTLARKPGHFPVRVSADNRFILLVNGRRVGAGPATSDLGHWRYATLDLAPYLTRGSNHLEAVVWNYVKPEEPIPDGLSPAQKNAAAFRNQRNQTGPVAQISARLGFWFSAPGAPELDSGPTWRVQLDSARSAAPVMGQVAGFYAAGPSEIVDARVPLAAPVAATPALAPGEPSPWALSADPLPQMSYRAVDPGLVARTNLDEAKAFPRQPVTIPARKTVKILLARPAMVAAYPTLRVTGGKDASIKLTYAEALIDAKGRKGLRSEVGDRTIRGLSDRFTADGGARAFAPLWWRTWRYLEIEVQTADQPLRLQGLDVAETDYPFGQVGKFVSDDPELNRIWDIGWRTARIDAHETYMDTAYYEQLQYVGDTRLQALISYAVSGDPRLATQAMDAFGASRALGGVTEGAYPSRTSNPIPPFSLLWIGMLHDYWSRHPDPEPARRHLARAREVLAWFDGYLGPDGLMRKTPGWSFVDWAVKDGRLLSRDAFPSYDAQGRSCLLSLAYLGALRDMTDLEAALGEPSLAGRDRSRAEAIAAAVRDQCWAPDRGLFADTPDKASFSQHTNALAVLYDVAAPKDAAAILDRTVGQAGIDAPTGMISTSYYYAWYLVRAFDHAGQADRYLSLLDTWRGLLALDYTTWPEERGNTRSDTHAWSAHPTADLLELVAGIRPDAPGYGRLRVEPHLGALRRLDAAAATPQGPVEVKYRRKGQRLVVEVRKPAGLSGVFVWRGQSHALLGARTRLDLPAGD
Peak57 (PAR %) [1]: 2.987% | Peak75 (PAR %) [2]: 2.427% | ratio PP/QS-21 [3]: 0.17 | QS-17 (PAR %) [4]: 4.825%

B2: 1069 (protein, listed as Deltaproteobacteria bacterium)
chain: MSLHDRSWVWNPDWNESRKETSAGGFVHFRREIDLEKRPSRPIFISITADTRYKLYINSKFVHHGPVKGDSQVWYYDELDIQPYMKAGKNTIAVRVLRLYHGTRFGTSFPRMPLGGLRIQHIRDSNDPPIIFSIETNGSWKTAVDRSSFLPIIEDDMFLHIFEAVDRRNDCKLQWTSAKPHKIFNAFGLVSPWKLSPRQIPFANFRPAIFSTIHNIRSTSNDAEVVDWQACLLAKSSNRTPVRLAAGTIHHVELEASHHLTAFMSFLFERPENPGAEIKITYSECYEDVPDNPQFRQKADRRDTSKKLLGPYDTFILGGRIYEQEDPSSAYHESGEDMVIFAPFHFRTFRFIAIDIAVNSDSDLIFHGVQITRTKYPLDVLAQFSPGGRDVTLPVQKMWETSILTLENCMHDCYEDCPFYEQLQYAMDTRSSALFTYYLSGDDRLARQAITQTRNSFQPSIGLTASRAPCEHLQIIPNFSLFWICMVADHYLHYGDMAFTSQFLPVCDAVLDSFRRRIDPDLGLVRCYDTDDFWDFVDWTEAWKPRGIPPAGKRTGYQTFSSSLYAYTLNLIAPAVEEYGRKGVAEEYRQSAAEVAASIWQHCFDGQYFTDGLAGSALNSEYSQHNQVWAILSGAVIGDEARQLLSKTLSRHDLTTPSIAMSFYTLQAVSLVGGDLYDLHFNDFWAPWIEQLSNNVTTWVEDNVSQRSECHAWGSAPIYEFMAEVVGLRPLEPGWRSISFKPRLALFETMDSKVPIPIRGSSGMAVAHVRWGRKGDDIAGVTIELKKGAENLRIPITLSHESGEDEVVISPFARDVRIQ
Peak57 (PAR %) [1]: 2.596% | Peak75 (PAR %) [2]: 2.213% | ratio PP/QS-21 [3]: 0.17 | QS-17 (PAR %) [4]: 4.786%

B3: 1056 (protein, listed as Solitalea canadensis)
chain: MKPIITNLMLLLFAGAASAQSSKELYRSKEFSIYTDKVVQGKYIAKVLSPTEMTSDYQSPVNLYKSPKLTFKFSINGKDNEMISGQDHSINVMAKDGKFISPLITFGKHYVDKKNVPDNTYLEPNIDFTIRLDMRNVLNAFKTDGFYKGADGKKVYKEDFKGVYVAGSTLPLIWDFDNLVHHPDLQLKDDDGDGIYEVKVVLNEFKEQPSVSSNWKLKRNISAFPQYQASSPIENAMYNLSLDEMENAIEADSTLRTGKEWAGVWTRDVSYSIILSMAILQPKVAEYSLLRKVKNDRIIQDTGTGGAYPVSTDRMIWAVAAWEIYKTTGDKNWLSKAYSIIKNSIEDDWKNAYDPKTGLVKGESSFLDWREQEYPKWMQPADIYESECLGTNVVHFQANKVFAEMAILLGQKTVSDEHNAIAQTIKTGINNYLWIANKGYYGQYLYGRNYKILSPRSEALGEALAVIFGVADNERQKTIVRNTPVNSFGIPCFYPQLPNTPPYHNNAVWPFVQTYWALAAANAGNEQSVMESIAAIYRPAALFLTNKENFVADNGDFAGTQINSSNMLWSLSGNIALVYKVLFGMQFGADRLTFKPTVPQALAGTRMLTNFKYRNALLTISMQGFGTQIKSITMDGKPLVNAIVPASLTGKHTIKMVLTNMMESSSTTILPAYTSLTIPQVELKNDEIVWKKVPNAVSYVFIKNGDRIDNGIDTACIINNNSFAEYQVIAVDKNGVESFGSEPLQIIPEQTVKTIEIENLTSKADLPYKGYSGDGFVEISTQKNTILSFETTITEAGTYAINFKYANGNGPINTENKCAFRTLKLNNKQVGTVVLPQRGTNEWSEWGMSNSVIVELKAGTNKFDLTYETNNANMNGTVNQAMLDYVRIVKVE
Peak57 (PAR %) [1]: 2.796% | Peak75 (PAR %) [2]: 2.416% | ratio PP/QS-21 [3]: 0.17 | QS-17 (PAR %) [4]: 4.774%

B4: 996 (protein, listed as Opitutus terrae)
chain: MHRRFLAAILLGAPALLESAAAAPETPAAPPPAAAQPLAWPEVHRETKPWSRWWWFGNIADEKSVTAQLEACAAAGLGGLEITPIYGVRGYEDRFVPFLSPRWMELLRHTLVESRRLGLGIDLATGTGWPFGGPWLQPEDVAHTLAHRVYEIKPGERLGEPVRLTATGLVRVAGPRPVKLEELREPITANANLQELALDQVRFPKPMRLVSLMAFPLALAGVAPTPLDLTSRVRADGSLDWTAPADAGTWTLYALFAGPHGKMVERAAPGGEGFALDHFSSTALRAYLARFDAAFAEGHLLSDLPSAAGADSAPRLRAFFNDSYEVDDADGEANWTPRFLEEFQKRRGYDLRAHLPELLATTENDFSARVRSDYRETISDLLLDEFTNPWREWAHQHGALIRNQAHNSPANILDLYAASDIPEQEGNGFLAMKLASSAAHVSGKPLASAETATWLNEHFLTTLAELKQNTDEFLLAGINHVCYHGTALSPLDAAWPGFNFYASVELNPLNPFWRDFTALNAYVARAQSFLQSGTPDEDVLLYYNIHDRWAERGNGRMPHFGHGGRDPSGSLAATAAALHEAGVGFDYVSDRQLQKITPDRAIVVPQTTFMPEATLARLVELAAQGATILFVDHLPRSAPGLAGLNASGRFEQLLQKIQTQLAPSDVLSAAKLDGGQFLLGPGIRELLDRCPGIARESLRPFGLEFVRRRTDAGALYFLVNRSNQPIDRWIPLQSPAAAAALFDPMTGNAGLAAIHSSGPTGSASIPPAHSDGARASRAPTEIYLQLAPGESCVVQLHATPVAGPAWHYWQRAGEPHLLTGDWSVTFTAGGPALPAAAQLHALTSWTDFAGEAGRAFSGTAVYTRRFARPSGDAPAWELDLGTVGDSARVTLNGRELGVLIQPPWRVVIPANEWRDENALEIDVTNLAANRIADLDRRGASWKIFYNANFPARFRENVGPDRQFTAARWLPRNSGLLGPVKLTPLQKSDPTL
Peak57 (PAR %) [1]: 3.190% | Peak75 (PAR %) [2]: 2.221% | ratio PP/QS-21 [3]: 0.16 | QS-17 (PAR %) [4]: 4.778%

B5: 1010 (protein, listed as Paenibacillus mucilaginosus)
chain: MEENRLWNARWIWHQSYPWTSDPGTHEMVWFRREFDVTDPHLAQLVVDISADSRYRLFLNGDSVSVGPCKGDRSTHYYETVDLSERLIAGTNVLAAQVLHFAPSGPHLLGVSGPLSIHRAVSGAMFLEGVLIEGNGHSQTLHSDEKWLCKKMPGFKLVPSPIIFFLGGFEDTDGSGLDHGWELPGYDDEGWTNAVIVCETGDKFGQLTPWQLAPRPIPPMREEPASFRGITKADDRAAIPGYEAMLRGGDTRSVRVEAGQSIWLELDAGELVTGYVTLKLRGGRESRIKLLYAESYEEPASNLHHRVKGIRDDAENGILLGEADHYTVAGVGIGESVERYEPFDFRTFRYLRLEAAAKDEPLEIVLLSYRDTGYPLNAQAAFSCSDPDYAALWELSLKTLRRCMHETYEDCPYYEQLQYTMDTRLQMMFTYAVSADDRLARRALFDYHSSALPSGMLQSRYPSEYRQVIPSFSLYWIHMLYEHYWHFGDRELIRRYVPTMTGVLGWFRRMLTPEGLVAPTPRAYWPYFDWCIDWENGTPPAHAKGPLTLLSQMLAAALQTASQIYEAVGWSDAAREAKADANAVNEALLRLCWRPERGLFADGPEVEEFSQHAQVWGVVCGAVQGEDAVRLLERTIEPQAEHMAQLSVPASYELFRMLSRHGLYGKASNVIDRWKAFLHLHLTTLPEVTDDNHPRSDCHAWSALPLSEFTGEILGVRPGAPGYSEIIVSPQPLQLSWAKGSAATRHGSVEVEWTLDEEAVFRMSGNGPVGIPLLVVLPNGKQVEFRHGGKFEASAKLRA
Peak57 (PAR %) [1]: 2.845% | Peak75 (PAR %) [2]: 2.559% | ratio PP/QS-21 [3]: 0.18 | QS-17 (PAR %) [4]: 4.796%

B6: 1080 (protein, listed as Eisenbergiella massiliensis)
chain: MANWIWYPGDFEIYHGMCQNFDREERGFFWPAYWHIADCRHHVVFHASCRLEKETAFRVTAKGIGHVLVKWEEKAPSWFPEGQPFYQEKKYTIGEWISCPAKEIGIDVVIGNRTGLPCIYVEGEVIRSGKNWTVTDFAAPEVPVGWNDMYVRAQQDPQIFEYTQELCRPVSTERVNGGVLYDFGRELTADTLIKINGEERPDQVTLCYGESRTEALDTQLCYLKQVLEIPGKKDSVPAGCASGPEREADCGASPFGRWESGQRYHTKLRAFRYIFVPEGENASLVTVEALYKYVDFPKRSSFSCSDGLINRIWEVADTTFRLASGIFFLDGVKRDRWIWSGDAYQSYFINQYLFFDKDICKRTILALRGNDPVTEHINTIVDYSMYWIISLENYYNMSGDLDFIRMVYPRMESLLRYCMEQTDGQGFIYGREGDWIYIDWAELDKEGILCAEQQLLARSYEAVASVRRLLGLDAEEFDVRKEALLKNIRQFFWDEEKGAFIDSYQSGRRNVTRHANIFAVLFGYADEAETESILHKVLLNEEVAAITTPYFKFYELEALAKLGRFEVVMDTLKSYWGGMLERGADTFWEEYKPEQPEEEQYGMYGDKYGKSLCHAWGASPIYLLGRYCMGVRPTGTAYETFAVEPQLELFDSFSCSFPVNEGTVWMDWKDGVLDVYTDKDGGVLKAAGKEYTLERGKHVVVKGR
Peak57 (PAR %) [1]: 2.882% | Peak75 (PAR %) [2]: 2.434% | ratio PP/QS-21 [3]: 0.17 | QS-17 (PAR %) [4]: 4.792%
